Values quoted from earlier work as cited in paper PMC4322731.

Biological target: Cys12 (UniProt position 13, SVLFVCLGNIC)
Details: not stated (discussed as the resting-state thiolate form of the free enzyme)

## Bovine heart low molecular weight protein tyrosine phosphatase (BHPTP, LMW-PTP, class II PTP) (Bos taurus)
  pKa: less than 4
